Reference: patent publication US6858210B1, “Therapeutic and diagnostic domain 1 β2GPI polypeptides and methods of using same” (La Jolla Pharmaceutical Co., priority 1998, dated 2005)
Positions count from the first letter of the chain named. Numbers in names are those of the source. Read-outs that look alike come from different tables or passages of the source.

What was measured:
[1] = system: human β2GPI-dependent antiphospholipid antibody; experiment: Micropanning of mutant domain 1 phage, patient antibodies; type: binding; details: for Micropan score: Table 7B
[2] = system: rabbit anti-human β2GPI; experiment: Micropanning of mutant domain 1 phage, rabbit antibody; type: binding; design: key: 0 (<10 colonies) to 4+ (confluent) semiquantitative colony score; details: for Micropan score: Table 7B; for μpan score: Table 7A
Description: Error prone PCR was carried out as follows. Domain 1 of human β2GPI was amplified by PCR under conditions that enhance the error rate of Taq polymerase. The primers were such that amino acids 1-64 were amplified. A Sfc 1 restriction site was incorporated as part of amino acid 1. At the 3′ end a Sal 1 restriction site was incorporated after amino acid 64. The PCR reaction was done as described by Leung et al. (1989) Technique 1:11, using 0.25 mM MnCl2. The PCR product was digested with Sfc 1 and Sal 1 and cloned into fd-tet-DOG2 that had been digested with Apal 1 and Sal 1. This positions domain 1 at the N-terminus of pill immediately after the pill signal sequence. The ligation reaction was electroporated in E. coli K91. Phage were harvested and titered by standard methods. Resulting phage clones were assayed using a micropanning technique.
Immulon type 2 plates were coated with protein G. Protein G was prepared at 5 μg/mL in 0.1 M NaHCO3 and 100 μL per well was added to the wells of microtitration plates and incubated overnight at 4° C. After discarding excess protein G solution from plates, each well was blocked with 200 μL 2YT for 1 hour at RT with agitation on an oscillating platform. Tris-buffered saline, pH 7.4/0.5% Tween 20 (TBS/Tween), was used with an automatic plate washer to wash the wells 4 times with 200 μL. One hundred μL human β2GPI-dependent antiphospholipid 6626, 6501, 6701, rabbit β2GPI-dependent antiphospholipid, or control normal IgG, diluted to 2.5 μg/mL with 2YT, was added to washed wells. The plate was incubated for 1 hour at room temperature on a rotating platform.
Phage to be tested by micropanning were obtained from the agar plates generated by biopanning. Each clone to be tested was transferred using sterile toothpicks to a separate well of a round-bottom 96-well microtitration plate (Corning, Corning, N.Y.) containing 200 μL 2YT/Tet per well and cultured overnight at 30° C. Following overnight incubation, phage cultures were centrifuged using a microtitration plate holder at 1300×g for 10 minutes at room temperature. Supernatants constituted the source of “neat” phage. The neat phage were diluted 1: 100-1:1000 and 100 μL was added to the plate containing protein G-bound β2GPI-dependent antiphospholipid antibody-6501 and normal IgG prepared as described above. The incubation of dilute phage with aPL antibody or control IgG was carried out for 2 hours at room temperature on a flat rotator. After 9 washes with TBS/Tween in an automated plate washer, the IgG-bound phage was eluted with 20 μL of 0.2 N HCl-glycine/0.1% BSA, pH 2.2. The elution incubation continued for 10 minutes at RT, during which time a new Corning microtitration plate was prepared containing 20 μL of freshly starved E. coli per well and kept chilled. One hundred forty μL of 29 mM Tris was added to the plate containing the phage eluates in order to neutralize the pH, following which 20 μL of phage suspension was transferred from each well to the corresponding well in the plate containing starved E. coli. After a 10 minute incubation at 37° C., 200 μL 2YT was added and incubation carried out an additional 30 minutes at 37° C. Using multichannel pipettors, 8 μL from each well was spotted on a large 2YT/Tet agar plate while retaining the original 8×12 well pattern and orientation from the last microtitration plate. After allowing the spots to dry for 30 minutes, the plate was incubated overnight at 30° C. The following day, colonies were semiquantitatively scored from 0 to 4+, with 0 symbolizing <10 colonies; 1+=10-30; 2+=30 colonies to 70% confluent; 3+=70%-90% confluent; 4+=confluent.
For Table 7A, the rabbit anti-human β2GPI was performed on two separate occasions. Mutations are listed with the original amino acid, the position number, and the identity of the amino acid at that position in the mutant. […] Non-mutated domain 1 have a score of 3+, while domain 5 phage gave a score of −. Silent mutations are not shown. […]

[3] = system: affinity purified β2GPI-dependent antiphospholipid antibody; experiment: Direct binding ELISA, nickel chelate-coated wells charged with recombinant β2GPI proteins (no cardiolipin); design: species or system human; details: O.D. at 550 nm
Description: Nickel Chelate-coated microwell plates (NCP 010 00 Xenopore Corp. 374 Midland Ave. Saddle Brook, N.J. USA) were coated with 50 μl of serial dilutions of the various recombinant β2GPI, in PBS, at room temperature for 2 hours. The plates were washed three times with PBS and blocked with 75 μl of a 1% gelatin (Sigma #G-2500) in PBS for one hour room temperature. […] The plates were washed three times with PBS, 50 μl of alkaline phosphatase conjugated anti-immunoglobulin (anti-human IgG, gamma chain specific, Zymed #62-8422) or anti-rabbit IgG (Zymed #62-6122) diluted appropriately in 1% gelatin was added and incubated at 37° C. for one hour. The plates were washed three times with PBS, 50 μl of alkaline phosphatase PPMP chromogenic substrate solution was added and incubated for 30 minutes at room temperature. The optical density, at 550 nm, was determined by reading the plates in a microplate autoreader (Bio-Teck Instruments, model EL311).
Seven to nine different recombinant β2GPI mutant proteins were examined to determine if they could support the direct binding of affinity purified β2GPI-dependent antiphospholipid antibody preparations in the absence of anionic phospholipid. All recombinant mutant β2GPI were assayed with affinity purified β2GPI-dependent antiphospholipid antibody preparations from 11 different patients. Each mutant recombinant β2GPI protein was tested, in a dose dependent fashion and GST-6his was included as a negative control. The recombinant mutant β2GPI proteins were bound to nickel coated microtiter plates via their 6-his tail. All recombinant mutant β2GPI proteins tested bound rabbit anti-β2GPI showing that they were assessable by antibody (FIG. 5).

[4] = system: affinity purified β2GPI-dependent antiphospholipid antibody; experiment: Competitive inhibition ELISA: recombinant β2GPI proteins compete for antibody binding to coated full length recombinant β2GPI; design: species or system human; details: for IC50: read-out: 50% (concentration to give 50% inhibition)
Description: Microtiter plates (MaxiSorp™, Nalge Nunc International, Denmark) were coated with 50 μl of full length recombinant β2GPI at 10 μg/ml in 0.1 M bicarbonate, pH 9.5, incubated overnight at 4° C., washed three times with 0.15 M PBS, pH 7.2, and blocked for one hour at room temperature with 75 μl of 2% Non-fat Dried Milk (Carnation, 2% NFDM). Test inhibitors were diluted in 2% NFDM and 25 μl of each dilution was added to coated wells. Affinity purified β2GPI-dependent antiphospholipid antibody was diluted in 2% NFDM and 25 μl, of a constant concentration, was added to the wells, including a group of wells that had no inhibitor, which acted as the positive controls. The contents of the wells were mixed and the plates were incubated at 37° C. for one hour. The plates were washed three times with PBS, 50 μl of alkaline phosphatase conjugated anti-human IgG, gamma chain specific, (Zymed #62-8422) diluted appropriately in 2% NFDM was added and incubated at 37° C. for one hour. The plates were washed three times with PBS, 50 μl of alkaline phosphatase PPMP chromogenic substrate solution was added and incubated for 30 minutes, at room temperature. The Optical Density, at 550 nm, was determined by reading the plates in a microplate autoreader (Bio-Teck Instruments, model EL3 11). The percent inhibition was determined by dividing the OD550 obtained in the presence of inhibitor by the mean OD550 obtained from the wells without inhibitor and then multiplying by 100 (more particularly, [mean A550 obtained from control wells without inhibitor less A550 of background] minus [A550 obtained in presence of inhibitor less A550 of background] divided by [mean A550 obtained from control wells without inhibitor less A550 of background] times 100).
Seven to nine different recombinant β2GPI mutant proteins were used to determine the antigenic specificity of affinity purified β2GPI-dependent antiphospholipid antibody preparations from 13 different patients. Each mutant recombinant β2GPI protein was tested, in a dose dependent fashion, for its ability to inhibit affinity purified β2GPI-dependent antiphospholipid antibody from binding to full length recombinant β2GPI. The following values were also observed for domain 1 only recombinant protein (1 - - - -; see Table 2 for designations): […]

B1: Dom1: phage displaying wild type (WT) domain 1 (protein)
chain: GRTCPKPDDLPFSTVVPLKTFYEPGEEITYSCKPGYVSRGGMRKFICPLTGLWPINTLKCTPRV
In the case of B1, the Micropan score ([1]; antibody 6226) is reported as 4, the Micropan score ([1]; antibody 6501) is reported as 4 and the Micropan score ([1]; antibody 6632) is reported as 4. The Micropan score ([1]; antibody 6644) was 4, the Micropan score ([1]; antibody 6701) was 4 and the Micropan score ([1]; antibody 7008) was 4. The μpan score ([1]; control phage for Table 7A, antibody not stated) was 3+ (3+=70%-90% confluent), the Micropan score ([2]; 1st column) was 4 and the Micropan score ([2]; 2nd column) was 4. It also gave a Micropan score ([2]; 3rd column) of 4, a Micropan score ([2]; 4th column) of 4 and a Micropan score ([2]; 5th column) of 4.

B2: 3F8: phage clone, domain 1 mutant T50A (protein)
chain: B1 chain with T50A
In the case of B2, the Micropan score ([1]; antibody 6226) is reported as 2, the Micropan score ([1]; antibody 6501) is reported as 2 and the Micropan score ([1]; antibody 6632) is reported as 2. It also gave a Micropan score ([1]; antibody 6644) of 3, a Micropan score ([1]; antibody 6701) of 2 and a Micropan score ([1]; antibody 7008) of 3.

B3: 2B2: phage clone, domain 1 mutant V37E (protein)
chain: B1 chain with V37E
B3 was tested, and the μpan score ([1]; Table 7A, antibody 6501) was 3, the μpan score ([1]; Table 7A, antibody 6626) was 3 and the μpan score ([1]; Table 7A, antibody 6701) was 3. The Micropan score ([1]; antibody 6226) was 4, the Micropan score ([1]; antibody 6501) was 4 and the Micropan score ([1]; antibody 6632) was 4. For the same molecule, the Micropan score ([1]; antibody 6644) was 4, the Micropan score ([1]; antibody 6701) was 4 and the Micropan score ([1]; antibody 7008) was 4. The μpan score ([2]; first (or only) value) was 3, the Micropan score ([2]; 1st column) was 4 and the Micropan score ([2]; 2nd column) was 4. It also gave a Micropan score ([2]; 3rd column) of 4 and a Micropan score ([2]; 4th column) of 4.

B4: D11: phage clone, domain 1 mutant N56D (protein)
chain: B1 chain with N56D
With B4 the μpan score ([2]; first (or only) value) was 2 and the μpan score ([2]; second value (second occasion)) was 3.

B5: 2A1: phage clone, domain 1 mutant T20S (protein)
chain: B1 chain with T20S
B5 was tested, and the μpan score ([1]; Table 7A, antibody 6501) was 3, the μpan score ([1]; Table 7A, antibody 6626) was 3 and the μpan score ([1]; Table 7A, antibody 6701) was 3. The Micropan score ([1]; antibody 6226) was 4, the Micropan score ([1]; antibody 6501) was 4 and the Micropan score ([1]; antibody 6632) was 4. It also gave a Micropan score ([1]; antibody 6644) of 4, a Micropan score ([1]; antibody 6701) of 4 and a Micropan score ([1]; antibody 7008) of 4. The μpan score ([2]; first (or only) value) was 3, the Micropan score ([2]; 1st column) was 4 and the Micropan score ([2]; 2nd column) was 4. For the same molecule, the Micropan score ([2]; 3rd column) was 4 and the Micropan score ([2]; 4th column) was 4.

B6: 12---: recombinant β2GPI deletion mutant with domains 1 and 2 (protein)
chain: GRTCPKPDDLPFSTVVPLKTFYEPGEEITYSCKPGYVSRGGMRKFICPLTGLWPINTLKCTPRVCPFAGILENGAVRYTTFEYPNTISFSCNTGFYLNGADSAKCTEEGKWSPELPVCAPIIGHHHHHH
With B6 the “Maximum O.D.” value ([3]; Ab 6203) was 0.119, the “Maximum O.D.” value ([3]; Ab 6501) was 0.028 and the “Maximum O.D.” value ([3]; Ab 6626) was 0.073. The “Maximum O.D.” value ([3]; Ab 6632) was 0.016, the “Maximum O.D.” value ([3]; Ab 7008) was 0.008 and the “Maximum O.D.” value ([3]; Ab 7015) was 0.063. The “Max (maximum inhibition observed at concentrations tested)” value ([4]; Ab 6203) was 20%, the IC50 ([4]; Ab 6203) was greater than 10 µM and the “Max (maximum inhibition observed at concentrations tested)” value ([4]; Ab 6501) was 30%. For the same molecule, the IC50 ([4]; Ab 6501) was greater than 10 µM, the “Max (maximum inhibition observed at concentrations tested)” value ([4]; Ab 6626) was 50% and the IC50 ([4]; Ab 6626) was greater than 10 µM. For the same molecule, the “Max (maximum inhibition observed at concentrations tested)” value ([4]; Ab 6632) was 70%, the IC50 ([4]; Ab 6632) was 3 µM and the “Max (maximum inhibition observed at concentrations tested)” value ([4]; Ab 6644) was 45%. The IC50 ([4]; Ab 6644) was greater than 10 µM, the “Max (maximum inhibition observed at concentrations tested)” value ([4]; Ab 7008) was 40% and the IC50 ([4]; Ab 7008) was greater than 10 µM. The “Max (maximum inhibition observed at concentrations tested)” value ([4]; Ab 7015) was 30%, the IC50 ([4]; Ab 7015) was greater than 10 µM and the “Max (maximum inhibition observed at concentrations tested)” value ([4]; Ab 7101) was 20%. For the same molecule, the IC50 ([4]; Ab 7101) was greater than 10 µM, the “Max (maximum inhibition observed at concentrations tested)” value ([4]; Ab 7104) was 90% and the IC50 ([4]; Ab 7104) was 1 µM.
